The source of these data is the supplement of paper PMC7125110.

The chains are these.
B1: glmS ribozyme (parent)
chain: AUAAAAGCGCCAGAACUACAGAAAUGUAGUUGACGAGGAGGAGGUUUAUCGAAUUUUCGGCGGAUGCCUCCAAA

Details in all cases: with glucosamine-6-phosphate
The variants in series [1] derive from B1. Put plainly: kcat; higher = faster cleavage; RNA array. The method in brief: (§1)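 Glucosamine-6-phosphate (40 μM to 10 mM) in HEPES/KCl/Mg(OAc)2 buffer was flowed over sequenced MiSeq chips, and tiles were imaged over ~14 h. Barcoded ribozyme variants there had been transcribed in situ by E. coli RNA polymerase and were tracked through a hybridised Cy3 probe at 37 °C. One- or two-exponential decay fits to per-tile medians, normalised to baseline and to non-cleaving reference variants, gave kobs. kcat and KM came from weighted Michaelis–Menten fits across concentrations.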

The variants in series [2] derive from B1. Put plainly: self-cleavage kobs at 160 uM GlcN6P; higher = faster cleavage; RNA array. The essentials:
as §1

In series [3] the parent is B1. As to the kind of experiment: self-cleavage kobs at 640 uM GlcN6P; higher = faster cleavage; RNA array. The essentials: as §1
In series [4] the parent is B1. Put plainly: self-cleavage kobs at 2500 uM GlcN6P; higher = faster cleavage; RNA array. The essentials:
as §1

Variants of B1 are the subject of series [5]. Put plainly: self-cleavage kobs at 10000 uM GlcN6P; higher = faster cleavage; RNA array. The essentials:
as §1

The variants in series [6] derive from B1. As to the kind of experiment: KM; higher = weaker cofactor use; RNA array. The method in brief: as §1
In series [7] the parent is B1. Put plainly: self-cleavage kobs at 40 uM GlcN6P; higher = faster cleavage; RNA array. The method in brief: as §1

± gives the standard error. For some assays here: Variants at the floor of the assay were thinned out.

The kcat is the number of substrate molecules converted per active site and unit of time at saturation. Turning to AUAAAAGCGCCAGAACUACAGAAAUGUAGUUGACGAGGAGGAGGUUUAUCGAAUUUUUGGAGGAUGCCUCCAAA [C58U C61A], in series [1], the turnover number (kcat) was found to be 6.3e-05 ± 2.6e-05 s⁻¹. The “self-cleavage kobs at 160 uM GlcN6P” value in series [2] turned out to be 6.42e-05 ± 1.7e-05 s⁻¹. Further, the “self-cleavage kobs at 640 uM GlcN6P” value in series [3] is 0.000108 ± 3.4e-05 s⁻¹. Moreover, the “self-cleavage kobs at 2500 uM GlcN6P” value in series [4] amounted to 7.93e-05 ± 1.5e-05 s⁻¹.
As for AUAAAAGCGCCAGAACUACAGAAAUGUAGUUGACGAGGAGGAGGUAUAUCGAAGUUUCGGCGGAUGCCUGCAAA [U46A U54G C70G], the kcat in series [1] is 0.000171 ± 6e-05 s⁻¹. In addition, in series [2], the “self-cleavage kobs at 160 uM GlcN6P” value stood at 6.23e-05 ± 2e-05 s⁻¹. The “self-cleavage kobs at 640 uM GlcN6P” value in series [3] turned out to be 0.000291 ± 6.7e-05 s⁻¹. For the same variant, the “self-cleavage kobs at 2500 uM GlcN6P” value in series [4] is 0.000305 ± 6.4e-05 s⁻¹. Further, in series [5], the “self-cleavage kobs at 10000 uM GlcN6P” value turned out to be 0.000127 ± 2.9e-05 s⁻¹.
A word on the KM: it is the concentration of substrate that gives half-maximal velocity. For the variant AUAAAAGCGCCAUAUCUACAGAAAUGUAGUUGACGAGGAGGAGGUUUAUCGAAUUUUCGGCGGAUGCCUCCAAA [G13U A15U], the catalytic constant (kcat) in series [1] worked out at 0.000299 ± 2e-05 s⁻¹. Also, the KM in series [6] was found to be 5440 ± 760 µM. In addition, the “self-cleavage kobs at 2500 uM GlcN6P” value in series [4] worked out at 9.42e-05 ± 1.4e-05 s⁻¹. Also, in series [5], the “self-cleavage kobs at 10000 uM GlcN6P” value is 0.000194 ± 1.9e-05 s⁻¹.
Consider AUAAAAGCGCCAGAUCUACAGAAAUGUAGUUGACGAGGAGGAGGUUUAGCGAAUUUUCGGCGGAUGCCUCCAAA [A15U U49G], for which, in series [1], the turnover number (kcat) was 9.5e-05 ± 7.9e-06 s⁻¹. Further, the Michaelis-Menten constant (KM) in series [6] is 1730 ± 470 µM. Further, the “self-cleavage kobs at 640 uM GlcN6P” value in series [3] is 2.05e-05 ± 9.2e-06 s⁻¹. For the same variant, the “self-cleavage kobs at 2500 uM GlcN6P” value in series [4] was determined as 5.99e-05 ± 8e-06 s⁻¹. In addition, the “self-cleavage kobs at 10000 uM GlcN6P” value in series [5] came out at 7.95e-05 ± 8.2e-06 s⁻¹.
Turning to AUAAAUGCGCCAGAAUUACAGAAAUGUAGUUGACGAGGAGGAGGUUUAUCGAAUUUUCGGCGGAUGCUUCCAAA [A6U C16U C68U], in series [1], the turnover number (kcat) is 9.14e-05 ± 3.2e-06 s⁻¹. Further, the Michaelis constant (KM) in series [6] is 625 ± 120 µM. Moreover, the “self-cleavage kobs at 2500 uM GlcN6P” value in series [4] turned out to be 7.4e-05 ± 1.9e-05 s⁻¹. The “self-cleavage kobs at 10000 uM GlcN6P” value in series [5] was 8.55e-05 ± 2e-05 s⁻¹.
Regarding AUAAAAGCGCCAGAACUACAGAAAUGUAGUUUACGAGGAGGAGGUUUAUCGACUUUUCGGCGGAUGCCUCCAAA [G32U A53C], the turnover number (kcat) in series [1] worked out at 0.000282 ± 0.00012 s⁻¹. Also, the “self-cleavage kobs at 640 uM GlcN6P” value in series [3] stood at 0.000104 ± 2.3e-05 s⁻¹. For the same variant, the “self-cleavage kobs at 2500 uM GlcN6P” value in series [4] turned out to be 0.000105 ± 2.7e-05 s⁻¹. Besides, the “self-cleavage kobs at 10000 uM GlcN6P” value in series [5] was determined as 0.000275 ± 4.6e-05 s⁻¹.
As for AUAAAAGCGCCAGACCUACAGAAAUGUAGUUGACGAGGAGGAGGUUUAUCGACUUUUCGGCGGAUGCCUCCAAA [A15C A53C], the kcat in series [1] is 0.00123 ± 0.00037 s⁻¹. Moreover, the Michaelis-Menten constant (KM) in series [6] is 2900 ± 1400 µM. Besides, in series [7], the “self-cleavage kobs at 40 uM GlcN6P” value was found to be 2.74e-05 ± 1.3e-05 s⁻¹. Besides, the “self-cleavage kobs at 160 uM GlcN6P” value in series [2] is 5.14e-05 ± 1.6e-05 s⁻¹. In series [3], the “self-cleavage kobs at 640 uM GlcN6P” value came out at 0.000308 ± 6e-05 s⁻¹. Besides, in series [4], the “self-cleavage kobs at 2500 uM GlcN6P” value amounted to 0.000472 ± 0.00011 s⁻¹. Besides, the “self-cleavage kobs at 10000 uM GlcN6P” value in series [5] was 0.00102 ± 0.00019 s⁻¹.
In the case of AUAAAAGCGCCAGAACUACAGAAAUGUAGUUGACGAGGAGGAGGUUUAUCGAAUUUUCGGCGGGUGCCUCGAAA [A64G C71G], in series [1], the kcat was determined as 0.000386 ± 8.2e-05 s⁻¹. In series [2], the “self-cleavage kobs at 160 uM GlcN6P” value was found to be 6.24e-05 ± 2e-05 s⁻¹. For the same variant, the “self-cleavage kobs at 640 uM GlcN6P” value in series [3] worked out at 0.000495 ± 0.00013 s⁻¹. Besides, the “self-cleavage kobs at 2500 uM GlcN6P” value in series [4] turned out to be 0.000271 ± 2.9e-05 s⁻¹. Also, in series [5], the “self-cleavage kobs at 10000 uM GlcN6P” value was 0.000398 ± 5.8e-05 s⁻¹.
